In data set [1] the target is T1, PARP1-ΔBRCT (human, UniProt P09874 1-1014, del367-494). Briefly: competition EMSA; vs N1 in same reaction; 25 mM Tris pH 7.5, 75 mM NaCl, 50 mM arginine, 0.1 mM TCEP, 0.1 ug/ul BSA, room temperature 30 min; 0.05 uM probe, 0-2.5 uM protein; native 10% PAGE in TBE. To be noted: protein: recombinant; tags: His; label: 32P; single strand.
Data set [2] concerns the target T2, PARP1-ΔWGR (human, UniProt P09874 1-1014, del518-654). Described as above. To be noted: protein: recombinant; tags: His; label: 32P; single strand.
In data set [3] the target is T3, PARP1-ΔZn3 (human, UniProt P09874 1-1014, del232-374). The description is as above. The following applies: protein: recombinant; tags: His; label: 32P; single strand.
Data set [4] concerns the target T2, PARP1-ΔWGR. The data set can be described thus: EMSA; monomer-equivalent K, n=1.04±0.11; 25 mM Tris pH 7.5, 75 mM NaCl, 50 mM arginine, 0.1 mM TCEP, 0.1 ug/ul BSA, room temperature 30 min; 0.05 uM probe, 0-2.5 uM protein; native 10% PAGE in TBE. To be noted: protein: recombinant; tags: His; chain copies: 2; label: 32P; single strand.
In data set [5] the target is T1, PARP1-ΔBRCT. The data set can be described thus: EMSA; monomer-equivalent K, n=2.23±0.10; 25 mM Tris pH 7.5, 75 mM NaCl, 50 mM arginine, 0.1 mM TCEP, 0.1 ug/ul BSA, room temperature 30 min; 0.05 uM probe, 0-2.5 uM protein; native 10% PAGE in TBE. The following applies: protein: recombinant; tags: His; chain copies: 2; label: 32P; single strand. (Mobility shift assays separate free from complexed probe on a gel.)

The target of data set [6] is T3, PARP1-ΔZn3. Briefly: EMSA; monomer-equivalent K, n=1.41±0.08; 25 mM Tris pH 7.5, 75 mM NaCl, 50 mM arginine, 0.1 mM TCEP, 0.1 ug/ul BSA, room temperature 30 min; 0.05 uM probe, 0-2.5 uM protein; native 10% PAGE in TBE. To be noted: protein: recombinant; tags: His; chain copies: 2; label: 32P; single strand.
The target in data set [7] is T1, PARP1-ΔBRCT. The data set can be described thus: EMSA; monomer-equivalent K, n=1.94±0.11; 25 mM Tris pH 7.5, 75 mM NaCl, 50 mM arginine, 0.1 mM TCEP, 0.1 ug/ul BSA, room temperature 30 min; 0.05 uM probe, 0-2.5 uM protein; native 10% PAGE in TBE. The following applies: protein: recombinant; tags: His; chain copies: 2; label: 32P; single strand.
For data set [8], the target named is T2, PARP1-ΔWGR. The data set can be described thus: EMSA; monomer-equivalent K, n=2.13±0.07; 25 mM Tris pH 7.5, 75 mM NaCl, 50 mM arginine, 0.1 mM TCEP, 0.1 ug/ul BSA, room temperature 30 min; 0.05 uM probe, 0-2.5 uM protein; native 10% PAGE in TBE. To be noted: protein: recombinant; tags: His; chain copies: 2; label: 32P; single strand.
The target of data set [9] is T3, PARP1-ΔZn3. The data set can be described thus: EMSA; monomer-equivalent K, n=2.17±0.12; 25 mM Tris pH 7.5, 75 mM NaCl, 50 mM arginine, 0.1 mM TCEP, 0.1 ug/ul BSA, room temperature 30 min; 0.05 uM probe, 0-2.5 uM protein; native 10% PAGE in TBE. The following applies: protein: recombinant; tags: His; chain copies: 2; label: 32P; single strand.
For data set [10], the target named is T1, PARP1-ΔBRCT. Briefly: EMSA; Table 2 value not in material; 25 mM Tris pH 7.5, 75 mM NaCl, 50 mM arginine, 0.1 mM TCEP, 0.1 ug/ul BSA, room temperature 30 min; 0.05 uM probe, 0-2.5 uM protein; native 10% PAGE in TBE. To be noted: protein: recombinant; tags: His; chain copies: 2; label: 5'-32P; single strand.
Data set [11] deals with T2, PARP1-ΔWGR. The data set can be described thus: EMSA; affinity not significantly changed from FL; Table 2 value not in material; 25 mM Tris pH 7.5, 75 mM NaCl, 50 mM arginine, 0.1 mM TCEP, 0.1 ug/ul BSA, room temperature 30 min; 0.05 uM probe, 0-2.5 uM protein; native 10% PAGE in TBE. To be noted: protein: recombinant; tags: His; chain copies: 2; label: 5'-32P; single strand.

Data set [12] has as its target T3, PARP1-ΔZn3. The data set can be described thus: EMSA; lowest affinity, within 2-3 fold of FL; Table 2 value not in material; 25 mM Tris pH 7.5, 75 mM NaCl, 50 mM arginine, 0.1 mM TCEP, 0.1 ug/ul BSA, room temperature 30 min; 0.05 uM probe, 0-2.5 uM protein; native 10% PAGE in TBE. To be noted: protein: recombinant; tags: His; chain copies: 2; label: 5'-32P; single strand.

T3 sequence (P09874 other isoform, or with tags, fused parts or gaps del232-374 | mutant): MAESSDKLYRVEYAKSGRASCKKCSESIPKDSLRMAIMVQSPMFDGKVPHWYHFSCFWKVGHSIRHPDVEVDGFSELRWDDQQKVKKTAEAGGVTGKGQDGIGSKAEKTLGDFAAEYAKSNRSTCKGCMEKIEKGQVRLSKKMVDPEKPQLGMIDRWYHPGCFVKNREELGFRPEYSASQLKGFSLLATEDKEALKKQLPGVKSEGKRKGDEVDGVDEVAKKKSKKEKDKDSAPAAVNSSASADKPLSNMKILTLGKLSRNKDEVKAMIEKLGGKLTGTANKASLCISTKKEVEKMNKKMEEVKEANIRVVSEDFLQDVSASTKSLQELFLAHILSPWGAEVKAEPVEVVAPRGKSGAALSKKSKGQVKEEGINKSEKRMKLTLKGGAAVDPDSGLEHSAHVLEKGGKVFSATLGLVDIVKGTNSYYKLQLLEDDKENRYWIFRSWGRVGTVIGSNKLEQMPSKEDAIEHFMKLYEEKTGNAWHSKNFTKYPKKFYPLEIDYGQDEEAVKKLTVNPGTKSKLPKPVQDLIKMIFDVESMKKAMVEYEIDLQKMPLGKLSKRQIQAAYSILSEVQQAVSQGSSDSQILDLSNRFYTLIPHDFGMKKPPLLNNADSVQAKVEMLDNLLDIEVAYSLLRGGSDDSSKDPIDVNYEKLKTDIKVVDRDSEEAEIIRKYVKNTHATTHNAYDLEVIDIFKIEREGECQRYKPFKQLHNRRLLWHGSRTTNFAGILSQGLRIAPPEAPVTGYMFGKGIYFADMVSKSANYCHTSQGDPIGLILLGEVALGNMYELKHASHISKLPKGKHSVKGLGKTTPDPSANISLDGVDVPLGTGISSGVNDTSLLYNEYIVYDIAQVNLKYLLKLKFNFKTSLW
T2 sequence (P09874 other isoform, or with tags, fused parts or gaps del518-654 | mutant): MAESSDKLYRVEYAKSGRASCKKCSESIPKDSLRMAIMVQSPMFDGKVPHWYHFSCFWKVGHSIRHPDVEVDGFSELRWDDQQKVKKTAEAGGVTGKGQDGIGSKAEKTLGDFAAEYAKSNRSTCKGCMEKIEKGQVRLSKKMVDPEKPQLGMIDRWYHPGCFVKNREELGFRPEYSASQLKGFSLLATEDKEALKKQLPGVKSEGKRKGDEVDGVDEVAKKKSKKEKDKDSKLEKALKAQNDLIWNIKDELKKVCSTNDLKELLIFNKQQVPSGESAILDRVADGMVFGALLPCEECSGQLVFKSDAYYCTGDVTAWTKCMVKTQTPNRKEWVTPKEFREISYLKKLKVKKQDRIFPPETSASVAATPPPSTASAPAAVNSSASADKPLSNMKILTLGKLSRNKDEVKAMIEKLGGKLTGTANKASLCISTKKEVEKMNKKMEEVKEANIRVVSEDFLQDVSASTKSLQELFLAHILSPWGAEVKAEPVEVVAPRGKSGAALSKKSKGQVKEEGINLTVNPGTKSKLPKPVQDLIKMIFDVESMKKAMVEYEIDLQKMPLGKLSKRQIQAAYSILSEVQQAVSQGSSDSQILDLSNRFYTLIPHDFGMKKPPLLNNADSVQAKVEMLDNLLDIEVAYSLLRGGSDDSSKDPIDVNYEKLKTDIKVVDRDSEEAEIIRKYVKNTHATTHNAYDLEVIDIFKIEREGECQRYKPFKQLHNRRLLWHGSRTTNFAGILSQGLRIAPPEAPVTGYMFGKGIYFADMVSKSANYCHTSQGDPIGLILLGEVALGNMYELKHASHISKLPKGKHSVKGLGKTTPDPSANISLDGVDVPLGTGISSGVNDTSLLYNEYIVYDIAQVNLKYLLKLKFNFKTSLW
T1 sequence (P09874 other isoform, or with tags, fused parts or gaps del367-494 | mutant): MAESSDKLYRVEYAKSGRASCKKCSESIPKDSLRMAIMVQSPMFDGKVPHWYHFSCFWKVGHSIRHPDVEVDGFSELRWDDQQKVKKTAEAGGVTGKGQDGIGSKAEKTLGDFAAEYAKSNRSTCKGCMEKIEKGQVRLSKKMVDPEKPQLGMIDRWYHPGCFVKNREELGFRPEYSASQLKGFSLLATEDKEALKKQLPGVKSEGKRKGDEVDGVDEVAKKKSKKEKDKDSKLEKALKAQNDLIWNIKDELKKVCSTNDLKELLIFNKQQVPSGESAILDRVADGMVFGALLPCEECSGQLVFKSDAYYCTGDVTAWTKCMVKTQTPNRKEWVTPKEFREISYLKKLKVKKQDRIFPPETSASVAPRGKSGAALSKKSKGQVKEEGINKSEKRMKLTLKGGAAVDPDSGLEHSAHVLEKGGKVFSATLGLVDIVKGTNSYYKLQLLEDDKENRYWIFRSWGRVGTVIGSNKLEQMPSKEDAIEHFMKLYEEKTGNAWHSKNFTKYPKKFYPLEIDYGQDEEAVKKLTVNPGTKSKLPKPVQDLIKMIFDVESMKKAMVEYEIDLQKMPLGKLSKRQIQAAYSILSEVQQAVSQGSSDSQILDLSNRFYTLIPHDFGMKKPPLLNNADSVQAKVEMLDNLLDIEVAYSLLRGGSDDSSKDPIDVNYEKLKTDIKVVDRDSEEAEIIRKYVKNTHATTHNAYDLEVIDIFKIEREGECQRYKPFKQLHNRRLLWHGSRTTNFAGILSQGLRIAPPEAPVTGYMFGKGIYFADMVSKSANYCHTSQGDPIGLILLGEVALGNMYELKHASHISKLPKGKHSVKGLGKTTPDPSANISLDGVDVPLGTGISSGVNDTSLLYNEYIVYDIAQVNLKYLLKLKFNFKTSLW

Take TAGGCACCGGCATCTTGAC (ssDNA) [19-mer ssDNA]: the binding signal was determined as 42.3 ± 1.2 KDNA/KRNA with PARP1-ΔBRCT [1], 26.5 ± 2.4 KDNA/KRNA with PARP1-ΔWGR [2] and 23.1 ± 5.2 KDNA/KRNA in the data set with PARP1-ΔZn3 [3].

For the molecule CGUACGCGGAAUAGUUUAAACUGU (ssRNA) [24-mer ssRNA], the Ka stood at 3.4e+06 M⁻¹ with PARP1-ΔWGR [4], 2.38e+06 M⁻¹ in the data set with PARP1-ΔBRCT [5] and 1.86e+06 M⁻¹ with PARP1-ΔZn3 [6].

Regarding CCGUACGCGGGUUUAAACGA (ssRNA) [20-mer ssRNA], the Ka is 1.19e+06 M⁻¹ with PARP1-ΔBRCT [7], 1.46e+06 M⁻¹ in the data set with PARP1-ΔWGR [8] and 1.3e+06 M⁻¹ with PARP1-ΔZn3 [9].

Take UAGGCACCGGCAUCUUGAC (ssRNA) [19-mer ssRNA]: the binding result with PARP1-ΔBRCT [10], with PARP1-ΔWGR [11] and with PARP1-ΔZn3 [12] was “binds” in each case.

(Values after publication PMC5787697, “Transcriptome-wide identification of the RNA-binding landscape of the chromatin-associated protein PARP1 reveals functions in RNA biogenesis”.)
